To fix the notation:
B1: S. cerevisiae Abp1 (full length; SH3 domain 535-592 mutated) / Hua2 (parent complex)
chain 1: MALEPIDYTTHSREIDAEYLKIVRGSDPDTTWLIISPNAKKEYEPESTGSSFHDFLQLFDETKVQYGLARVSPPGSDVEKIIIIGWCPDSAPLKTRASFAANFAAVANNLFKGYHVQVTARDEDDLDENELLMKISNAAGARYSIQTSSKQQGKASTPPVKKSFTPSKSPAPVSKKEPVKTPSPAPAAKISSRVNDNNDDDDWNEPELKERDFDQAPLKPNQSSYKPIGKIDLQKVIAEEKAKEDPRLVQKPTAAGSKIDPSSDIANLKNESKLKRDSEFNSFLGTTKPPSMTESSLKNDDDKVIKGFRNEKSPAQLWAERKAKQNSGNAETKAEAPKPEVPEDEPEGEPDVKDLKSKFEGLAASEKEEEEMENKFAPPPKKSEPTIISPKPFSKPQEPVKAEEAEQPKTDYKKIGNPLPGMHIEADNEEEPEENDDDWDDDEDEAAQPPLPSRNVASGAPVQKEEPEQEEIAPSLPSRNSIPAPKQEEAPEQAPEEEIEEEAEEAAPQLPSRSSAAPPPPPRRATPEKKPKENPWATAEYDYDAAEDNELTFVENDKIINIEFVDDDWWLGELEKDGSKGLFPSNYVSLGN
chain 2: MQQTKFGKMYLDHDSVVEYSEDEIVEADRITLGYKKRLSMIENQMRHLLEDFSLDVQQIEPILADLQKYYDAFLQLLQKRNKSLQCKRSTHQPVPSPMNSQTSTNAKVNLSGKLMKFQLNSVQKFDEENILRILQNKIEFEHYFQIDKGKKQKVLLLAVYQCLNGPTRLHKVLNIEGIIHNNSIRTILGKQVSSSKWTVFLYDVKLVLLAHRQDVPNLETSKMIVRYGDLFPCALYFKDHTAY

In this test the parent is B1. In words: DHFR protein-fragment complementation in yeast (Abp1-DHFR F[1,2] x partner-DHFR F[3]), deep mutational scanning, second methotrexate selection vs reference; S. cerevisiae, DHFR-PCA selection in liquid with methotrexate at 30 C, two 72 h selections (the score uses the second); reference = the pre-selection culture.
chain 1 MALEPIDYTTHSREIDAEYLKIVRGSDPDTTWLIISPNAKKEYEPESTGSSFHDFLQLFDETKVQYGLARVSPPGSDVEKIIIIGWCPDSAPLKTRASFAANFAAVANNLFKGYHVQVTARDEDDLDENELLMKISNAAGARYSIQTSSKQQGKASTPPVKKSFTPSKSPAPVSKKEPVKTPSPAPAAKISSRVNDNNDDDDWNEPELKERDFDQAPLKPNQSSYKPIGKIDLQKVIAEEKAKEDPRLVQKPTAAGSKIDPSSDIANLKNESKLKRDSEFNSFLGTTKPPSMTESSLKNDDDKVIKGFRNEKSPAQLWAERKAKQNSGNAETKAEAPKPEVPEDEPEGEPDVKDLKSKFEGLAASEKEEEEMENKFAPPPKKSEPTIISPKPFSKPQEPVKAEEAEQPKTDYKKIGNPLPGMHIEADNEEEPEENDDDWDDDEDEAAQPPLPSRNVASGAPVQKEEPEQEEIAPSLPSRNSIPAPKQEEAPEQAPEEEIEEEAEEAAPQLPSRSSAAPPPPPRRATPEKKPKENPWATAEYDYDAAEDNELTFVENDKIINIEFKDDDWWLGELEKDGSKGLFPSNYVSLGN [chain 1 V565K]: the screen value was -2.9 DMS score: mean over two replicates of log2(f_test/f_ref + 0.5)/ln 2, minus the synonymous-codon median (not a log2 …. On to chain 1 MALEPIDYTTHSREIDAEYLKIVRGSDPDTTWLIISPNAKKEYEPESTGSSFHDFLQLFDETKVQYGLARVSPPGSDVEKIIIIGWCPDSAPLKTRASFAANFAAVANNLFKGYHVQVTARDEDDLDENELLMKISNAAGARYSIQTSSKQQGKASTPPVKKSFTPSKSPAPVSKKEPVKTPSPAPAAKISSRVNDNNDDDDWNEPELKERDFDQAPLKPNQSSYKPIGKIDLQKVIAEEKAKEDPRLVQKPTAAGSKIDPSSDIANLKNESKLKRDSEFNSFLGTTKPPSMTESSLKNDDDKVIKGFRNEKSPAQLWAERKAKQNSGNAETKAEAPKPEVPEDEPEGEPDVKDLKSKFEGLAASEKEEEEMENKFAPPPKKSEPTIISPKPFSKPQEPVKAEEAEQPKTDYKKIGNPLPGMHIEADNEEEPEENDDDWDDDEDEAAQPPLPSRNVASGAPVQKEEPEQEEIAPSLPSRNSIPAPKQEEAPEQAPEEEIEEEAEEAAPQLPSRSSAAPPPPPRRATPEKKPKENPWATAEYDYDAAEDNELTFVENDKIINIEFVDDDWWLGELEKDGSKGLFPSNYVSLEN [chain 1 G591E], for which the screen value is 1.01 DMS score: mean over two replicates of log2(f_test/f_ref + 0.5)/ln 2, minus the synonymous-codon median (not a log2 ….

For the variant chain 1 MALEPIDYTTHSREIDAEYLKIVRGSDPDTTWLIISPNAKKEYEPESTGSSFHDFLQLFDETKVQYGLARVSPPGSDVEKIIIIGWCPDSAPLKTRASFAANFAAVANNLFKGYHVQVTARDEDDLDENELLMKISNAAGARYSIQTSSKQQGKASTPPVKKSFTPSKSPAPVSKKEPVKTPSPAPAAKISSRVNDNNDDDDWNEPELKERDFDQAPLKPNQSSYKPIGKIDLQKVIAEEKAKEDPRLVQKPTAAGSKIDPSSDIANLKNESKLKRDSEFNSFLGTTKPPSMTESSLKNDDDKVIKGFRNEKSPAQLWAERKAKQNSGNAETKAEAPKPEVPEDEPEGEPDVKDLKSKFEGLAASEKEEEEMENKFAPPPKKSEPTIISPKPFSKPQEPVKAEEAEQPKTDYKKIGNPLPGMHIEADNEEEPEENDDDWDDDEDEAAQPPLPSRNVASGAPVQKEEPEQEEIAPSLPSRNSIPAPKQEEAPEQAPEEEIEEEAEEAAPQLPSRSSAAPPPPPRRATPEKKPKENPWATAEYDYDAAEDNELTFVENDKIINIEFVDDDWWLGELEKDGSKGLFPSNYVSLRN [chain 1 G591R], the screen value is -0.62 DMS score: mean over two replicates of log2(f_test/f_ref + 0.5)/ln 2, minus the synonymous-codon median (not a log2 ….

Turning to chain 1 MALEPIDYTTHSREIDAEYLKIVRGSDPDTTWLIISPNAKKEYEPESTGSSFHDFLQLFDETKVQYGLARVSPPGSDVEKIIIIGWCPDSAPLKTRASFAANFAAVANNLFKGYHVQVTARDEDDLDENELLMKISNAAGARYSIQTSSKQQGKASTPPVKKSFTPSKSPAPVSKKEPVKTPSPAPAAKISSRVNDNNDDDDWNEPELKERDFDQAPLKPNQSSYKPIGKIDLQKVIAEEKAKEDPRLVQKPTAAGSKIDPSSDIANLKNESKLKRDSEFNSFLGTTKPPSMTESSLKNDDDKVIKGFRNEKSPAQLWAERKAKQNSGNAETKAEAPKPEVPEDEPEGEPDVKDLKSKFEGLAASEKEEEEMENKFAPPPKKSEPTIISPKPFSKPQEPVKAEEAEQPKTDYKKIGNPLPGMHIEADNEEEPEENDDDWDDDEDEAAQPPLPSRNVASGAPVQKEEPEQEEIAPSLPSRNSIPAPKQEEAPEQAPEEEIEEEAEEAAPQLPSRSSAAPPPPPRRATPEKKPKENPWATAEYDYDAAEDNELTFVEKDKIINIEFVDDDWWLGELEKDGSKGLFPSNYVSLGN [chain 1 N556K], the screen value is -0.169 DMS score: mean over two replicates of log2(f_test/f_ref + 0.5)/ln 2, minus the synonymous-codon median (not a log2 ….

With chain 1 MALEPIDYTTHSREIDAEYLKIVRGSDPDTTWLIISPNAKKEYEPESTGSSFHDFLQLFDETKVQYGLARVSPPGSDVEKIIIIGWCPDSAPLKTRASFAANFAAVANNLFKGYHVQVTARDEDDLDENELLMKISNAAGARYSIQTSSKQQGKASTPPVKKSFTPSKSPAPVSKKEPVKTPSPAPAAKISSRVNDNNDDDDWNEPELKERDFDQAPLKPNQSSYKPIGKIDLQKVIAEEKAKEDPRLVQKPTAAGSKIDPSSDIANLKNESKLKRDSEFNSFLGTTKPPSMTESSLKNDDDKVIKGFRNEKSPAQLWAERKAKQNSGNAETKAEAPKPEVPEDEPEGEPDVKDLKSKFEGLAASEKEEEEMENKFAPPPKKSEPTIISPKPFSKPQEPVKAEEAEQPKTDYKKIGNPLPGMHIEADNEEEPEENDDDWDDDEDEAAQPPLPSRNVASGAPVQKEEPEQEEIAPSLPSRNSIPAPKQEEAPEQAPEEEIEEEAEEAAPQLPSRSSAAPPPPPRRATPEKKPKENPWATAEYDYEAAEDNELTFVENDKIINIEFVDDDWWLGELEKDGSKGLFPSNYVSLGN [chain 1 D544E], the screen value was -0.1 DMS score: mean over two replicates of log2(f_test/f_ref + 0.5)/ln 2, minus the synonymous-codon median (not a log2 ….

The values above are taken from publication PMC7954794 (2021).
